For the series, the target named is GST-capicua (1-450) (Homo sapiens, UniProt Q96RK0-2 1-450). The series can be described thus: EMSA.

We go through one molecule from PMC3025492.

B1: CRE probe (ETV4/ETV5 promoter CIC-responsive element) (dsDNA)
DNA 1: GTCGCGTTTTTTATGAATGAAAAACGTCCTTACATTCATT
DNA 2: AATGAATGTAAGGACGTTTTTCATTCATAAAAAACGCGAC
Turning to B1, the binding result is recorded as “binds”.
